Measured values from article PMC11711466, “Reconstitution of human DNA licensing and the structural and functional analysis of key intermediates” (Nature Communications, 2024).
Each block holds one binder with its values, some of them ahead of it.

Assays:
human ORC1 = molecular target: T1, human ORC1 (human, UniProt Q13415 1-861); assay: affinity co-purification; hORC1-5 co-overexpressed in G1-arrested budding yeast; StrepXT column on the N-terminal Strep tag of hORC1, then heparin column and glycerol gradient; conditions: partners not purified
T1 construct: human origin recognition complex subunit 1 (hORC1); Subunit of m1; also called hORC1; hORC1 N-tag; source: S. cerevisiae YC658, co-overexpressed with hORC2-5; in lysate (co-purification) and purified as hORC1-5 (StrepXT, heparin, glycerol gradient); not shown: Twin Strep-tag, N-terminal, kept
T1 sequence (looked up): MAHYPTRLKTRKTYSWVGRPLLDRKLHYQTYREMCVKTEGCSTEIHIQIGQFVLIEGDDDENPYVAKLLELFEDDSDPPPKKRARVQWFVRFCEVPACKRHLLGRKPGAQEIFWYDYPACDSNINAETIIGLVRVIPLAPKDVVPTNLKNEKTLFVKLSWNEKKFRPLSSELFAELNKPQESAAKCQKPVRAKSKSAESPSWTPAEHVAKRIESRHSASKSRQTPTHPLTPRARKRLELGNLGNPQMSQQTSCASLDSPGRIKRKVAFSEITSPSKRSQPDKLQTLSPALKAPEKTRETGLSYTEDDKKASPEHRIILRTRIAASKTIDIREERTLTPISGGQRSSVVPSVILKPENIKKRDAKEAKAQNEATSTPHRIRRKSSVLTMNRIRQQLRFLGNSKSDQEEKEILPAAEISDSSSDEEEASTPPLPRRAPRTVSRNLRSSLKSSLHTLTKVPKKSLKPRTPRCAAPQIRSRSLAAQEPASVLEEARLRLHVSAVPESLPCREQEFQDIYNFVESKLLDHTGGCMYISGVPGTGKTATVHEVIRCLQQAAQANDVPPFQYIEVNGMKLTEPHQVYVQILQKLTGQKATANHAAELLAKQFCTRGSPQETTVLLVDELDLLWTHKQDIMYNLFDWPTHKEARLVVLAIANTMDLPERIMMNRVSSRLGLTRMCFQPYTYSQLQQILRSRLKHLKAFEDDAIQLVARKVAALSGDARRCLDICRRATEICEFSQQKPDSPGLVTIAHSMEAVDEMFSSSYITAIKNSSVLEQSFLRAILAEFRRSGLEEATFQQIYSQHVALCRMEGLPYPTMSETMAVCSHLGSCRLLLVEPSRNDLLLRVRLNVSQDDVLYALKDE

human MCM3 = molecular target: T2, human MCM3 (human, UniProt P25205 1-808); assay: cryo-EM structure; hOCCM from a low-salt washed pre-RC reaction with ATPγS, eluted from the DNA beads with DNaseI; 6.09 Å; conditions: both partners purified
T2 construct: Subunit of m6; also called hMCM3; source: HEK293-F, co-expressed hMCM2-7; in lysate (co-purification) and purified as hMCM2-7 (Ni-NTA, StrepTrapXT)
T2 sequence (looked up): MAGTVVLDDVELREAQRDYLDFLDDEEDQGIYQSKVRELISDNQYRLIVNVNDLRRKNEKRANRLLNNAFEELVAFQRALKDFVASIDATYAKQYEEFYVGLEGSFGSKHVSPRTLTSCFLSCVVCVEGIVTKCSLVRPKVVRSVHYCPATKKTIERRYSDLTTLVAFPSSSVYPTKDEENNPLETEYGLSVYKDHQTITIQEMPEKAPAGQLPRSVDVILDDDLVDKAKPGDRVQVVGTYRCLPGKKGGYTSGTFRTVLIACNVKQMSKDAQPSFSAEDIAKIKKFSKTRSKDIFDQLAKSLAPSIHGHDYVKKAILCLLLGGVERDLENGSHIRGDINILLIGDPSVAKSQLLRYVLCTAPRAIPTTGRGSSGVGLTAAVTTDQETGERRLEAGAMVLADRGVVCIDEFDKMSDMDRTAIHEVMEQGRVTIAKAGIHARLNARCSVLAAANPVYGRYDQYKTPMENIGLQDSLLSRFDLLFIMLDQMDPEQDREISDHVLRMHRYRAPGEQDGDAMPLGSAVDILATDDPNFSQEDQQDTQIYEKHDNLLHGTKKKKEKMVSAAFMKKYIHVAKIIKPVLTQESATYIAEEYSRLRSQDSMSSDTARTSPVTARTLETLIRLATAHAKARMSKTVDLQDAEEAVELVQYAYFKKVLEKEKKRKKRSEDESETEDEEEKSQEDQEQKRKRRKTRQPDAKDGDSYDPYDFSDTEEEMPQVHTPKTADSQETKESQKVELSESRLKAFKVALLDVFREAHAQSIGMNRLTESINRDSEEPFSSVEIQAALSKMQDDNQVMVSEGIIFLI

human MCM2 = molecular target: T3, human MCM2 (human, UniProt P49736 1-904); assay: as above; conditions: both partners purified
T3 construct: human MCM2 (hMCM2); Subunit of m6; also called hMCM2; source: HEK293-F, co-expressed hMCM2-7; in lysate (co-purification) and purified as hMCM2-7 (Ni-NTA, StrepTrapXT); not shown: twin Strep, N-terminal, kept
T3 sequence (P49736 whole entry): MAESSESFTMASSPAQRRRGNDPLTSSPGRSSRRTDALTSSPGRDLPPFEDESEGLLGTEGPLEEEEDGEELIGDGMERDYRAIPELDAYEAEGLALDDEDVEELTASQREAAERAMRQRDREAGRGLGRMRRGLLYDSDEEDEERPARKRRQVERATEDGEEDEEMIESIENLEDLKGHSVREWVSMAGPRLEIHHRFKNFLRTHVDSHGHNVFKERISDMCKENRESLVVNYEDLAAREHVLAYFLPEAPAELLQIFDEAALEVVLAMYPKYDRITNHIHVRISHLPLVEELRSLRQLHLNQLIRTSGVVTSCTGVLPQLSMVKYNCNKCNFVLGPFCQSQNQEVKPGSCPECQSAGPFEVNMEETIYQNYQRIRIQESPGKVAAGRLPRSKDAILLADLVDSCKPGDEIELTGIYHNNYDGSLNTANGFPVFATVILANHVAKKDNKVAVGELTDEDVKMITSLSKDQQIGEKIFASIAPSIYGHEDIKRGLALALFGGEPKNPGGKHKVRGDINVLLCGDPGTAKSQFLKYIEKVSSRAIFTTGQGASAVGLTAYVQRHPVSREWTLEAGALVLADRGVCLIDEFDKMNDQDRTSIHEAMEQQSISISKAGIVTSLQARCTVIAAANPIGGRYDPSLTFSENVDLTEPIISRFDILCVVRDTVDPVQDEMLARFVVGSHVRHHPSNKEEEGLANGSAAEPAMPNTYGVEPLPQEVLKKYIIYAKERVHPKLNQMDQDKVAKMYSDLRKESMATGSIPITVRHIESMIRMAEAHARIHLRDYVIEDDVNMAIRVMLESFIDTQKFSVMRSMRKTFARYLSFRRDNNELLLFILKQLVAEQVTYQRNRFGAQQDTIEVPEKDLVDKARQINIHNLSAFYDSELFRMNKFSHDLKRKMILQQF

human MCM6 = molecular target: T4, human MCM6 (human, UniProt Q14566 1-821); assay: as above; conditions: both partners purified
T4 construct: Subunit of m6; also called hMCM6; source: HEK293-F, co-expressed hMCM2-7; in lysate (co-purification) and purified as hMCM2-7 (Ni-NTA, StrepTrapXT)
T4 sequence (looked up): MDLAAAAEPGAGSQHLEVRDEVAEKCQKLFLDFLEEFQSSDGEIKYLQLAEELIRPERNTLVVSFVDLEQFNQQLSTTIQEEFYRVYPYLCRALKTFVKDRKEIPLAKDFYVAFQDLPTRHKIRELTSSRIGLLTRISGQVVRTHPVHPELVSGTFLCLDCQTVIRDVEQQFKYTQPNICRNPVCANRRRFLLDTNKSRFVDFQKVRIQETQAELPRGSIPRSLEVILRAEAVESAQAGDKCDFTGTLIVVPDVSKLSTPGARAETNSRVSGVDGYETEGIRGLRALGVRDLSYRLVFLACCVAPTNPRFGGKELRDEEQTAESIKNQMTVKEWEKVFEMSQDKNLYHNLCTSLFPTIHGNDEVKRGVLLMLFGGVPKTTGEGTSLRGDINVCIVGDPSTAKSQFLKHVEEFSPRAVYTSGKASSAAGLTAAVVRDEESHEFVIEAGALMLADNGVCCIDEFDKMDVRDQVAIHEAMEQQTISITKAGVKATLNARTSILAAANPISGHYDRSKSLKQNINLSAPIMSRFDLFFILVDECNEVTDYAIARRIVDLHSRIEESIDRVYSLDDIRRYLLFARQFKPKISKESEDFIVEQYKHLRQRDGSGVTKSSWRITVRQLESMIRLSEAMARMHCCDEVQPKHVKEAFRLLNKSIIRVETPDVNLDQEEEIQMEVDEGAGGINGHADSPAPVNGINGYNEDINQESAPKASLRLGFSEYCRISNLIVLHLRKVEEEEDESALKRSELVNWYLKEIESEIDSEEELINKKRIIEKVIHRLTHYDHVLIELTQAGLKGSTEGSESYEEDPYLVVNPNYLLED

- binding result (human ORC1): binds
- binding result (human MCM3): binds
B1: human ORC2 (natural protein, UniProt Q13416 1-577, looked up)
chain: MSKPELKEDKMLEVHFVGDDDVLNHILDREGGAKLKKERAQLLVNPKKIIKKPEYDLEEDDQEVLKDQNYVEIMGRDVQESLKNGSATGGGNKVYSFQNRKHSEKMAKLASELAKTPQKSVSFSLKNDPEITINVPQSSKGHSASDKVQPKNNDKSEFLSTAPRSLRKRLIVPRSHSDSESEYSASNSEDDEGVAQEHEEDTNAVIFSQKIQAQNRVVSAPVGKETPSKRMKRDKTSDLVEEYFEAHSSSKVLTSDRTLQKLKRAKLDQQTLRNLLSKVSPSFSAELKQLNQQYEKLFHKWMLQLHLGFNIVLYGLGSKRDLLERFRTTMLQDSIHVVINGFFPGISVKSVLNSITEEVLDHMGTFRSILDQLDWIVNKFKEDSSLELFLLIHNLDSQMLRGEKSQQIIGQLSSLHNIYLIASIDHLNAPLMWDHAKQSLFNWLWYETTTYSPYTEETSYENSLLVKQSGSLPLSSLTHVLRSLTPNARGIFRLLIKYQLDNQDNPSYIGLSFQDFYQQCREAFLVNSDLTLRAQLTEFRDHKLIRTKKGTDGVEYLLIPVDNGTLTDFLEKEEEEA
notes: human origin recognition complex subunit 2 (hORC2); Subunit of m1; also called hORC2; source: S. cerevisiae YC658, co-overexpressed with the other hORC1-5 subunits; in lysate (co-purification) and purified as hORC1-5

- binding result (human ORC1): binds
- binding result (human MCM2): binds
B2: human ORC3 (natural protein, UniProt Q9UBD5 1-711, looked up)
chain: MATSSMSKGCFVFKPNSKKRKISLPIEDYFNKGKNEPEDSKLRFETYQLIWQQMKSENERLQEELNKNLFDNLIEFLQKSHSGFQKNSRDLGGQIKLREIPTAALVLGVNVTDHDLTFGSLTEALQNNVTPYVVSLQAKDCPDMKHFLQKLISQLMDCCVDIKSKEEESVHVTQRKTHYSMDSLSSWYMTVTQKTDPKMLSKKRTTSSQWQSPPVVVILKDMESFATKVLQDFIIISSQHLHEFPLILIFGIATSPIIIHRLLPHAVSSLLCIELFQSLSCKEHLTTVLDKLLLTTQFPFKINEKVLQVLTNIFLYHDFSVQNFIKGLQLSLLEHFYSQPLSVLCCNLPEAKRRINFLSNNQCENIRRLPSFRRYVEKQASEKQVALLTNERYLKEETQLLLENLHVYHMNYFLVLRCLHKFTSSLPKYPLGRQIRELYCTCLEKNIWDSEEYASVLQLLRMLAKDELMTILEKCFKVFKSYCENHLGSTAKRIEEFLAQFQSLDETKEEEDASGSQPKGLQKTDLYHLQKSLLEMKELRRSKKQTKFEVLRENVVNFIDCLVREYLLPPETQPLHEVVYFSAAHALREHLNAAPRIALHTALNNPYYYLKNEALKSEEGCIPNIAPDICIAYKLHLECSRLINLVDWSEAFATVVTAAEKMDANSATSEEMNEIIHARFIRAVSELELLGFIKPTKQKTDHVARLTWGGC
notes: human origin recognition complex subunit 3 (hORC3); Subunit of m1; also called hORC3; source: S. cerevisiae YC658, co-overexpressed with the other hORC1-5 subunits; in lysate (co-purification) and purified as hORC1-5

- binding result (human ORC1): binds
- binding result (human MCM6): binds
B3: human ORC5 (natural protein, UniProt O43913 1-435, looked up)
chain: MPHLENVVLCRESQVSILQSLFGERHHFSFPSIFIYGHTASGKTYVTQTLLKTLELPHVFVNCVECFTLRLLLEQILNKLNHLSSSEDGCSTEITCETFNDFVRLFKQVTTAENLKDQTVYIVLDKAEYLRDMEANLLPGFLRLQELADRNVTVLFLSEIVWEKFRPNTGCFEPFVLYFPDYSIGNLQKILSHDHPPEYSADFYAAYINILLGVFYTVCRDLKELRHLAVLNFPKYCEPVVKGEASERDTRKLWRNIEPHLKKAMQTVYLREISSSQWEKLQKDDTDPGQLKGLSAHTHVELPYYSKFILIAAYLASYNPARTDKRFFLKHHGKIKKTNFLKKHEKTSNHLLGPKPFPLDRLLAILYSIVDSRVAPTANIFSQITSLVTLQLLTLVGHDDQLDGPKYKCTVSLDFIRAIARTVNFDIIKYLYDFL
notes: human origin recognition complex subunit 5 (hORC5); Subunit of m1; also called hORC5; source: S. cerevisiae YC658, co-overexpressed with the other hORC1-5 subunits; in lysate (co-purification) and purified as hORC1-5

- binding result (human ORC1): binds
- binding result (human MCM6): binds
B4: human ORC4 (natural protein, UniProt O43929 1-436, looked up)
chain: MSSRKSKSNSLIHTECLSQVQRILRERFCRQSPHSNLFGVQVQYKHLSELLKRTALHGESNSVLIIGPRGSGKTMLINHALKELMEIEEVSENVLQVHLNGLLQINDKIALKEITRQLNLENVVGDKVFGSFAENLSFLLEALKKGDRTSSCPVIFILDEFDLFAHHKNQTLLYNLFDISQSAQTPIAVIGLTCRLDILELLEKRVKSRFSHRQIHLMNSFGFPQYVKIFKEQLSLPAEFPDKVFAEKWNENVQYLSEDRSVQEVLQKHFNISKNLRSLHMLLMLALNRVTASHPFMTAVDLMEASQLCSMDSKANIVHGLSVLEICLIIAMKHLNDIYEEEPFNFQMVYNEFQKFVQRKAHSVYNFEKPVVMKAFEHLQQLELIKPMERTSGNSQREYQLMKLLLDNTQIMNALQKYPNCPTDVRQWATSSLSWL
notes: human origin recognition complex subunit 4 (hORC4); Subunit of m1; also called hORC4; source: S. cerevisiae YC658, co-overexpressed with the other hORC1-5 subunits; in lysate (co-purification) and purified as hORC1-5
